The target of assay [1] is T1, biotinylated HLA-A*2402/… complex (human, biotinylated complex, site not stated).
T1 construct: recombinant complex on streptavidin plates
The experiment in a line: ELISA, biotinylated complexes on streptavidin plates, dilution series of the antibody. Background: In an ELISA, binding on a coated surface is turned into a signal by an enzyme label.

Assay [2] has as its target HLA-A*2402/… complex on CHO-S cells (human). The experiment in a line: flow cytometry on CHO-S transfectants. In general terms: In flow cytometry, cells or beads pass a laser one at a time.
Protocol: Non transfected CHO-S cells were used as a control. For the staining 200′000 cells were suspended in 100 μl PBS containing 0.1% BSA. […] After 30 minutes incubation at 40° C. the cells were washed two times with 200 μl PBS containing 0.1% BSA. […] After the incubation, cells were washed again two times with 200 μl PBS containing 0.1% BSA.
Assay [3] addresses T2, biotinylated HLA-A*2402/… complex (human, biotinylated complex, site not stated).
T2 construct: control complex on streptavidin plates
As to the kind of experiment: ELISA, biotinylated complexes on streptavidin plates.

Assay [4] has as its target T3, HLA-A*0201/… with alanine at peptide position 5, on peptide-pulsed JY cells (human).
T3 construct: built from the parent peptide and the stated change
As to the kind of experiment: flow cytometry, peptide-pulsed JY cells.
Protocol: (§1) Briefly, 200′000 JY cells were incubated (pulsed) overnight under serum free conditions with 100 μg/ml peptide variants. The amino acids of the used peptides were sequentially substituted for an alanine (information regarding sequences of peptides is summarized FIG. 3B).

For assay [5], the target named is T4, HLA-A*0201/… with alanine at peptide position 3, on peptide-pulsed JY cells (human).
T4 construct: built from the parent peptide and the stated change
As to the kind of experiment: flow cytometry, peptide-pulsed JY cells.
Protocol: as §1

Assay [6] concerns the target T5, HLA-A*0201/… with alanine at peptide position 4, on peptide-pulsed JY cells (human).
T5 construct: built from the parent peptide and the stated change
The experiment in a line: flow cytometry, peptide-pulsed JY cells.
Protocol: as §1

Assay [7] addresses T6, HLA-A*0201/… with alanine at peptide position 6, on peptide-pulsed JY cells (human).
T6 construct: built from the parent peptide and the stated change
As to the kind of experiment: flow cytometry, peptide-pulsed JY cells.
Protocol: as §1

Assay [8] has as its target T7, CD3 molecule expressed on the surface of T cells (human, UniProt P07766 23-207).
T7 construct: whole, on cells; CD3 complex on cells; also called CD3 on PBMCs; CD3 on surface of immune effector cells
As to the kind of experiment: flow cytometry on PBMCs.

T7 sequence (P07766 23-207): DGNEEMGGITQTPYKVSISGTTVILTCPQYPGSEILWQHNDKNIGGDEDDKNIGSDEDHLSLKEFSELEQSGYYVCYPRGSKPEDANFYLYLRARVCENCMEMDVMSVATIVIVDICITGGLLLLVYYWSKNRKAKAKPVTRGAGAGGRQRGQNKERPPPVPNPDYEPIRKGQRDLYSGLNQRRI

B1: murine 9A7 IgG (antibody, V domains shown)
VH: QVQLQQPGAELVKPGASVKLSCKASGYTFTSFWMHWVKQRPGQGLEWIGEIDSSDSYTNYNQKFKGKATLTVDKSSSTAYMQLSSLTSDDSAVYYCARRVGRGYFDYWGQGTTLTVSS
VL: DIVMTQSHKFMSTSVGDRVSITCKASQDVRTAVVWYQQKPGQSPKLLIYWASTRHTGVPDRFTGSGSGTDYILTISSVQAEDLALYYCQQYDTTPWTFGGGTKVEIK
notes: mouse IgG from hybridoma; also called mouse 9A7 IgG; 9A7 murine antibody
Consider B1, for which, in assay [1], the IC50 – broadly, the concentration needed to halve the response being measured – came to 0.037 nM. Further, the values for the binding result in assay [2] and in assay [3] were “no binding (tested: dilution series starting at 222 nM)” and “no binding (tested: dilution series starting at 100 nM)”, respectively.

B2: 4A6 IgG (antibody, V domains shown)
VH: EVQLVQSGAEVKKPGSSVKVSCKASGGTFSSYAISWVRQAPGQGLEWMGGIIPIFGTADYAQKFQGRATITADESTSTAYMELSSLRSEDTAVYYCARDYDFWSGYYAGDVWGQGTTVTVSS
VL: QSALTQPASVSGSPGQSITISCTGTSSDVGGYNYVSWYQQHPGKAPKLMIYDVSNRPSGVSNRFSGSKSGNTASLTISGLQAEDEADYYCSSYTSSSTRVFGGGTKLTVL
notes: IgG detected with anti-human IgG; also called 4A6 antibody
As to B2, the binding result in assay [4], in assay [5], in assay [6] and in assay [7] was “no binding” each time.

B3: 4A6_SC_FV (scFv, V domains shown)
VH: B2 VH
VL: B2 VL
notes: scFv of 4A6; VH and VL are those named for 4A6; also called monospecific antibody fragment
On to B3, for which the binding result in assay [8] is “no binding (tested: 50 ng/ml)”.
